Results published in publication doi:10.1101/2025.09.29.679341 (bioRxiv, 2025).

Molecular target: the molecule itself
Assay: cryo-EM structure

B1: truncated β3-SBP (GABAA receptor β3 subunit, M3-M4 loop replaced by SQPARAA), from Expi293F cells (receptor)
chain: QSVNDPGNMSFVKETVDKLLKGYDIRLRPDFGGPPVCVGMNIDIASIDMVSEVNMDYTLTMYFQQYWRDKRLAYSGIPLNLTLDNRVADQLWVPDTYFLNDKKSFVHGVTVKNRMIRLHPDGTVLYGLRITTTAACMMDLRRYPLDEQNCTLEIESYGYTTDDIEFYWRGGDKAVTGVERIELPQFSIVEHRLVSRNVVFATGAYPRLSLSFRLKRNIGYFILQTYMPSILITILSWVSFWINYDASAARVALGITTVLTMTTINTHLRETLPKIPYVKAIDMYLMGCFVFVFLALLEYAFVNYIFFSQPARAAAIDRWSRIVFPFTFSLFNLVYWLYYVN
stoichiometry N: 5
